Reference: the supplement of paper PMC10567573
± gives the standard deviation.

Test: protein stability index of a GFP-peptide fusion (GPS, HEK-293T) (PSI 1-6); higher = more stable
[1] = treatment: DMSO, c terminus: a fixed tail appended
[2] = treatment: MLN4924 1 uM, 8 h, c terminus: a fixed tail appended
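Note: 24-mer peptide tiles fused after GFP, lentivirally expressed, FACS-sorted into six equal bins by GFP/DsRed ratio, decoded by Illumina sequencing, PSI is the read-weighted mean bin number.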

Sequence	protein stability index [1]	protein stability index [2]	protein stability index (treatment: DMSO, c terminus: native)	protein stability index (treatment: MLN4924 1 uM, 8 h, c terminus: native)
YGDWTSGENSDGCYEHFAELDIPQ [CLPTM1]	4.54 ± 0.23	4.63 ± 0.26		
YGLRGPHKADSIQGTARTLSPVLE [TNXB]	3.93 ± 0.36	3.84 ± 0.14		
YIKVDWQRVEKDMKKAKEQLKIRK [FUNDC2]	2.46 ± 0.61	2.94 ± 0.74		
YIPSYTSWYPSAHQEAMQQPQLM [DLX1]			2.63 ± 0.36	2.44 ± 0.26
YLWMCSTLALLLNFLACLASFCVE [SCAMP3]	3.53 ± 0.36	3.02 ± 0.12		
YMSINTHLGKEQSRRDDLEALGHM [CSNK1G1]	3.28 ± 0.19	3.74 ± 0.29		
YNNQSLGHGSHSFIYYENMLLGVP [PKD2L1]	2.16 ± 0.21	2.23 ± 0.37		
YQRFRQKSKASFLLLASGLVITDF [PTGFR]	2.65 ± 0.21	2.49 ± 0.7		
YSEYPECCVDVKPISQEKIESERA [DUSP5]	4.57 ± 0.39	4.69 ± 0.66		
YVEIRTFEPRLLVQSIELQRPRFI [VPS39]	2.33 ± 0.76	2.65 ± 0.7		
YVLEFSDHPGIHEPLEPEVKYVGN [CPN1]	3.17 ± 0.27	3.3 ± 0.1		
